“Also recorded” adds a separate entry of the source.
Assays:
[1] = Body weight and toxicity monitoring of mice bearing CALU-6 tumors; details: CALU-6 bearing Nude mice, 497C-T2 10 mg/kg IP
Procedure: Injections in groups 1, 2, 3 and 4 were performed according to the schedules Q2DX8, i.e. 1 quantity every two days, eight times.
CDDP was resuspended in sterile physiological serum at a concentration of 0.5 mg/mL and injected IP at a concentration of 5 mg/kg at a volume of 10 mL/kg, according to the treatment schedule Q2DX8.
Ketamine/Xylazine (80 mg/kg-12 mg/kg; Ref. K-113, Sigma, France) was used to anaesthetize the animals before sacrifice by cervical dislocation.

[2] = test system: NCI H460 human tumor; experiment: NCI H460 human tumor xenograft in Swiss Nude mice, tumor growth; assay type: in vivo; design: key to MRTV D28 / MRTV D12 / MRTV D14 / MRTV D16 / MRTV D18 / MRTV D20 / MRTV D22 / MRTV D24 / MRTV D26: ratio of mean tumor volume at day t to volume at injection (D12); details: for MRTV D12: reference day
Procedure: NCI H460 cells were cultured as adherent cells in complete RPMI 1640 medium (Ref. CM1RRM08-01, batch No. 623615, Eurobio, France) containing 2 mM L-Glutamine, adjusted to 4.5 g/L glucose (Ref. G7528, batch No. 033K0121, Sigma, France) and supplemented with 10 mM HEPES (Ref. H0887, batch No. 113K2338, Sigma, France), 1.0 mM sodium pyruvate (Ref. CSTVAT00-0U, batch No. 520818, Sigma, France) and 10% fetal calf serum (FCS; Ref. CVFSVF00-01, batch No. S13021, Eurobio, France) under a 37° C., 5% CO2 humidified atmosphere. They were amplified in 75 cm^2-flasks to reach 90×10^6 cells.
At D0, NCI H460 cells (human lung carcinoma) were collected from 75 cm^2-flasks by removing the medium and adding 3 ml of trypsine-EDTA (Ref. CEZTDA00-0U, batch No. 633920, Eurobio, France). After 5 min of incubation at 37° C., cells were detached from the plastic and the enzymatic reaction was stopped by adding 3 ml of RPMI 1640 medium containing 10% fetal calf serum. Cells were then centrifuged at 700 g for 5 min at room temperature. They were resuspended in serum-free RPMI 1640 culture medium containing L-Glutamine (2 mM), glucose (4.5 g/l), sodium pyruvate (1 mM) and buffered with HEPES (10 mM). Cells were counted and the number of viable NCI H460 cells was >99%. The number of cells was then adjusted to 25.10^6 cells/ml in serum-free medium.
NCI H460 cells (5.10^6 cells/mouse in 200 μL of serum-free medium) were then implanted subcutaneously in the right flank of each mouse.
At D12 post-implantation of the NCI H460 cells, the thirty mice were randomized into six groups of 5 mice. Tumor volumes had reached 228 to 468 mm^3 and mean tumor volumes were not statistically different between groups after randomization.
All solutions were injected IP.
Animals have been observed daily.
• Tumor growth curves were drawn using the mean tumor volumes (MTV), • Mean Relative tumor volume (MRTV) was calculated as the ratio between the MTV at time t and the volume at the time of injection (t=D12), • Tumor growth inhibition (T/C, %) was evaluated as the ratio of the median tumor volumes of treated groups versus vehicle group.
Statistical analyses of tumor volumes (V), time to reach ‘V’, tumor-doubling time (DT), relative tumor volume (RTV) and tumor growth inhibition (T/C) were performed for all groups. Data are expressed as mean±SD. Groups of data were normally distributed. Univariate analysis were performed to assess differences between groups. Statistical significance was then determined using the Student's t test. A P<0.05 was considered as statistically significant. The Statistical analysis was performed using XLSTAT (Addinsoft, France).

[3] = test system: HUVEC; experiment: Wound assay, migration of human endothelial cells; assay type: cell-based; details: 18 hours; 497C-T2 0.83 and 1.66 μM; 497C-T3 2.4 μM; 497C-T4 3.52 μM; 497C-T5 3.65 μM; C-terminal tail 4.92 μM
Procedure: Cell migration was tested by the wound assay described by Sato and Rifkin (J Cell Biol. 1988; 107:1199) with few modifications. HUVEC grown in growth medium EGM-2MV (Cambrex) were seeded in 24-well plates at 80 000 cells per well in 500 μL of growth medium and grown to confluence at 37° C. in a humidified atmosphere containing 5% CO2. Cells were scrapped with a plastic tip on one line only. After wounding, the culture medium was changed for fresh medium (control, FIG. 3a) or fresh medium supplemented with: • FIG. 3b: 497C-T2 20 μg/mL (0.83 μM) • FIG. 3c: 497C-T2 40 μg/mL (1.66 μM) • FIG. 3d: 497C-T3 48 μg/mL (2.4 μM) • FIG. 3e: 497C-T4 60 μg/mL (3.52 μM) • FIG. 3f: 497C-T5 61 μg/mL (3.65 μM) • FIG. 3g: C-terminal tail 63 μg/mL (4.92 μM)
After 18 hours of culture, cells were observed and photographed under the inverted microscope (Analysis, Olympus, Rungis, France).

[4] = test system: tumor cell line NCI-H460; experiment: Proliferation of other cell lines: NCI-H460; assay type: cell-based, human; details: even at high concentration
[5] = 497C-T2 10 mg/kg IP Q1DX16 (G4)
[6] = 497C-T2 10 mg/kg IP Q1DX16 (G4), 10 mg/kg
[7] = 497C-T2 10 mg/kg IP Q1DX16 (G4), listed as 497C-T2-Batch A
[8] = 497C-T2 10 mg/kg IP once daily Q1DX16 (G4)
[9] = IP Q2DX8, CDDP 5 mg/kg (G2), 497C-T2 10 mg/kg (G3), 497C-T2 10 mg/kg + CDDP 5 mg/kg (G5)
[10] = IP Q2DX8, CDDP 5 mg/kg (G2), 497C-T2 10 mg/kg (G3), 497C-T2 10 mg/kg + CDDP 5 mg/kg (G5), listed as 497C-T2-Batch A

B1: 497C-T2: entire LEL domain of protein 497C, SEQ ID NO:3 (112 amino acids); as produced SEQ ID NO:8, with N-terminal His-Tag and C-terminal tail, 24 kD (protein, listed as Homo sapiens)
chain: MHHHHHHSSGLVPRGSGMKETAAAKFERQHMDSPDLGTDDDDKISGFVFRHEIKDTFLRTYTDAMQTYNGNDERSRAVDHVQRSLSCCGVQNYTNWSTSPYFLEHGIPPSCCMNETDCNPQDLHNLTVAATKVNQKGCYDLVTSFMETNMGIIAGDRASPQPWRYRIRILAPSTSLRPHSSTTTTTTXIRLLTKPERKLSWLLPPLSNN
modifications: X: residue not identified in the source
toxicity during the course of the treatment [1]: No toxicity was observed; also recorded: not toxic | MTV at D14 [2, 5]: 468.85 mm^3 | MTV at D24 [2, 5]: 2289.22 mm^3 | T/C at D14 (treated/vehicle tumor volume ratio) [2, 5]: 46.90% | T/C at D24 (treated/vehicle tumor volume ratio) [2, 5]: 71.04% | DT (doubling time of tumor volume) [2, 6]: 5.9 ± 1.21 days | MTV at D28 [2, 6]: 3167±1681 mm^3 | T/C at D28 (treated/vehicle tumor volume ratio) [2, 6]: 71% | DT (doubling time of tumor volume) [2, 7]: 5.9 days | MTV at D28 [2, 7]: 3167.34 mm^3 | T/C at D28 (treated/vehicle tumor volume ratio) [2, 7]: 71.32% | MRTV D14 [2, 8]: 1.08 | MRTV D16 [2, 8]: 1.00 | MRTV D18 [2, 8]: 1.69 | MRTV D20 [2, 8]: 2.63 | MRTV D22 [2, 8]: 3.08 | MRTV D24 [2, 8]: 3.08 | MRTV D26 [2, 8]: 4.89 | MRTV D28 [2, 8]: 6.76 | DT (doubling time of tumor volume) [2, 9]: 4.08 ± 1.4 days | MRTV D14 [2, 9]: 1.37 | MRTV D16 [2, 9]: 1.70 | MRTV D18 [2, 9]: 2.46 | MRTV D20 [2, 9]: 2.81 | MRTV D22 [2, 9]: 3.30 | MRTV D24 [2, 9]: 3.22 | MRTV D26 [2, 9]: 5.80 | MRTV D28 [2, 9]: 7.37 | MTV at D14 [2, 9]: 571.00 mm^3 | MTV at D24 [2, 9]: 1955.02 mm^3 | MTV at D28 [2, 9]: 2482±2075 mm^3 | T/C at D14 (treated/vehicle tumor volume ratio) [2, 9]: 57.12% | T/C at D24 (treated/vehicle tumor volume ratio) [2, 9]: 60.67% | T/C at D28 (treated/vehicle tumor volume ratio) [2, 9]: 56% | DT (doubling time of tumor volume) [2, 10]: 4.08 days | MTV at D28 [2, 10]: 2481.61 mm^3 | T/C at D28 (treated/vehicle tumor volume ratio) [2, 10]: 55.88% | anti-tumoral activity ([2]; NCI H460, monotherapy (G3, G4) or combined with CDDP (G5, G6)): moderate anti-tumoral activity | MRTV D12 [2, 8]: 1.00 | MRTV D12 [2, 9]: 1.00 | inhibition of endothelial cell migration [3]: inhibited human endothelial cells migration in a dose dependent manner | anti-proliferative effect [4]: without any detectable anti-proliferative effect

From US8372810B2, “Anti-tumor drug, medicament, composition, and use thereof” (Gene Signal International SA, priority 2007, dated 2013)
